Experimental data from patent US20170306002A1 (UNITED STATES OF AMERICA AS REPESENTED BY THE SECRETARY …, published 2017).

Target: NA of A/Bethesda/NIH107-D31/2009 (pH1N1, H275Y) (influenza A virus …)
Assay: cell-based or functional assay

B1: mAb CD6 (whole IgG) (antibody, V domains shown)
VH: QVKLQESGGGLVQPKGSLKLSCAASGFTFNTYAMNWVRQAPGKGLEWVARIRSKSNNYATFYADSVKDRFTISRDDSQSMLYLQMHNLKTDDTAMYYCVRPSIYYYASGYLDVWGAGTTVTVSS
VL: QIVLSQSPAILSASPGEKVTMTCRTSSSVSYMHWYQQKPGSSPKPWIYATSNLASGVPFRFSGSGSGTSYSLTISRVEAEDAATYYCQQWNSNPPTFGGGTKLEIKR
- IC50, inhibition of NA activity in ELLA (fetuin substrate): 29 ng/mL
